Measured values from US20070072177A1 (CRUCELL HOLLAND B V, published 2007).

T1: glycoprotein of rabies virus strain CVS-11 (rabies virus strain CVS-11, UniProt O92284 20-524)
T1 sequence: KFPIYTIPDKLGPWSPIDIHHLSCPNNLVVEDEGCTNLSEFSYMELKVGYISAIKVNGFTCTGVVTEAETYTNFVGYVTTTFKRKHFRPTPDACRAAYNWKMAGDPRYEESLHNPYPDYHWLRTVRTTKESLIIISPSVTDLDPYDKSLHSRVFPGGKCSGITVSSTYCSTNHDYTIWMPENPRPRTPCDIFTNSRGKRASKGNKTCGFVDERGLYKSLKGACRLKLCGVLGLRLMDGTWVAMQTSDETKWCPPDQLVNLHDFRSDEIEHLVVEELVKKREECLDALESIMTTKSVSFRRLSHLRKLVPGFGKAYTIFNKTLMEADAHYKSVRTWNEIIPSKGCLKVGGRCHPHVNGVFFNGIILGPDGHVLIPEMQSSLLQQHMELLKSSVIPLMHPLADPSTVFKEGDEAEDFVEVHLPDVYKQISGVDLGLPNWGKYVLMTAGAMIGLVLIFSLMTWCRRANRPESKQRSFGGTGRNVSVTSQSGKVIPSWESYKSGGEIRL

T2: rabies virus glycoprotein (G protein) of strain CVS-11 (rabies virus strain CVS-11, UniProt O92284 20-524)
T2 sequence: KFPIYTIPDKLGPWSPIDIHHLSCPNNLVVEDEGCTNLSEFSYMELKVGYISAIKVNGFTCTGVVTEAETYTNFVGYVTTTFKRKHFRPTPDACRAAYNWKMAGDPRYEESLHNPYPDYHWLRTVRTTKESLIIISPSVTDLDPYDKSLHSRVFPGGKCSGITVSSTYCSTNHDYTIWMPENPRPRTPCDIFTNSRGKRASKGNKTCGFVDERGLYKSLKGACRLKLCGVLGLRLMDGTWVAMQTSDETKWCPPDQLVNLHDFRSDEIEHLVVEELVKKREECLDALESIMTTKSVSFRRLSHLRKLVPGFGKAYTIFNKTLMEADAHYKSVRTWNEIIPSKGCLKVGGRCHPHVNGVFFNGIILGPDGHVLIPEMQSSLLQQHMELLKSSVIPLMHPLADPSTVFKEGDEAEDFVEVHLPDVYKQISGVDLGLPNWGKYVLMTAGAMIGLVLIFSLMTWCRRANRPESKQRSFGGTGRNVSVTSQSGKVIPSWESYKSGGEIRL

B1: SC04-126 (scFv)
scFv: AMAQVTLKESGPTLVNPTQTLTLTCTFSGFSLSTGGVGVGWFRQPPGKALEWLARIDWDDDKYYSTSLKTRLTISKDTSKIQVVLTMTNMDPVDTATYYCARMGFTGTYFDYWGQGTLVTVSSGTGGSGGTGSGTGGSTQSVLTQPPSVSVAPGKTARITCGGNNIGSKSVHWYQQKPGQAPVLVIYYDSDRPSGIPERFSGSNSGNTATLTISRVEAGDEADYYCQVWDSSSDHPYVFGTGTKLTVLGAAA
B2: CR04-010 (antibody, V domains shown)
VH: QVQLVESGGDLVQPGRSLRLSCAASGFTFSSYGMHWVRQAPGKGLEWVADISYDGSNKYYADSVKGRFTISRDNSKNTLYLQMNSLRAEDTAVYYCAKDGLDLTGTIQPFGYWGQGTLVTVSS
VL: AIQMTQSPSSLSASVGDRVTITCRASQGIRNDLGWYQQKPGKAPKLLIYAASSLQSGVPSRFSGSGSGTDFTLTISSLQPEDFATYYCLQDYNYPRTFGQGTKVEIKR
B3: CR04-098 (antibody, V domains shown)
VH: QVQLVESGGGAVQPGRSLRLSCAASGFTFSSYGMHWVRQAPGKGLEWVAVILYDGSDKFYADSVKGRFTISRDNSKNTLYLQMNSLRAEDTAVYYCAKVAVAGTHFDYWGQGTLVTVSS
VL: DIQMTQSPSSLSASVGDRVTITCRASQGIRNDLGWYQQKPGKAPKLLIYAASSLQSGVPSRFSGSGSGTDFTLTISSLQPEDFATYYCQQLNSYPPTFGGGTKVEIKT
B4: SC04-120 (scFv)
scFv: AMAEVQLVQSGGGLVQPGRSLRLSCAASGFTFSTYGMHWVRQAPGKGLEWVATISYDGSIKDYADSEKGRFTISRDNSKNTLYLQMNSLRAEDTAVYYCAKGGKTGEFDYWGQGTLVTVSSGTGGSGGTGSGTGGSTDIQLTQSPSTLSASVGDRVTITCRASQGINSYLAWYQQEPGKAPKLLIYAASTLQSGVPSRFSGSGSGTEFTLTISSLQPEDFATYYCQQLNSYPFTFGPGTKVDIKRAAA
B5: SC04-146 (scFv)
scFv: AMAEVQLVQSGGGVVQPGRSLRLSCAASGFTFSSYGMHWVRQAPGKGLEWVATISYDGSIKDYADSEEGRFTISRDNSKNTLYLQMNSLRAEDTAVYYCAKGGKTGEFDYWGQGTLVTVSSGTGGSGGTGSGTGGSTDVVMTQSPATLSVSPGESATLFCRASESVYSNLAWYQHKPGRAPRLLIYGASTRATGIPARFDGTGSGTDFTLTISSLQSEDFAVYYCQQYNDWPITFGQGTRLEIKRAAA
B6: CR57 (antibody, V domains shown)
VH: QVQLVQSGAEVKKPGSSVKVSCKASGGTFNRYTVNWVRQAPGQGLEWMGGIIPIFGTANYAQRFQGRLTITADESTSTAYMELSSLRSDDTAVYFCARENLDNSGTYYYFSGWFDPWGQGTLVTVSS
VL: QSALTQPRSVSGSPGQSVTISCTGTSSDIGGYNFVSWYQQHPGKAPKLMIYDATKRPSGVPDRFSGSKSGNTASLTISGLQAEDEADYYCCSYAGDYTPGVVFGGGTKLTVLG
B7: SC04-144 (scFv)
scFv: AMAQVQLQELGGGVVQPGRSLRLSCAASGFTFGSYGMHWVRQAPGKGLEWVATISYDGSIKDYADSEKGRFTISRDNSKNTLYLQMNSLRAEDTAVYYCAKGGKTGEFDYWGQGTLVTVSSGTGGSGGTGSGTGGSTDIQLTQSPSSLSASVGDRVTITCRASQGISSYLAWYQQKPGKGPKLLIYAASTLQSGVPSRFSGSGSGTDFSLTISSLQPEDLATYYCQQYDSYPLTFGGGTKVEIKRAAA
B8: CRJB (antibody, V domains shown)
VH: QITLKETGPTLVKPTQTLTLTCTFSGFSLSTSGVGVGWIRQPPGKALEWVTLIYWDDDKRYSPSLENRVTIRKDTSKNQVALTMTNMDPLDTGTYYCAHRQHISSFPWFDSWGQGTLVTVSS
VL: SYVLTQPPSVSVAPGKTARINCGGNNIEYRSVHWYQQKSGQAPVAVIYDNSDRPSGIPERFSGSKSGNTATLTISRVEAGDEADYYCQVWDISSDVVFGGGTKLTVLG
B9: SC04-125 (scFv)
scFv: AMAQVQLVESGGGVVQPGRSLRLSCAASGFTFSSYGMHWVRQAPGKGLEWVAVISYDGSDKYYADSVKGRFTISRDNSKNTLYLQMNSLRAEDTAVYYCAKIATAGTGFDYWGQGTLVTVSSGTGGSGGTGSGTGGSTDIQMTQSPSSVSASVGDRVTITCRASQGISSYLAWYQQKPGKAPKLLIYDASSLESGVPSRFSGSGSGTEFTLTISSLQPDDFATYYCQQLNSYPLTFGGGTKVEIKRAAA
B10: SC04-140 (scFv)
scFv: AMAQMQLVQSGGGVVQPGRSLRLSCAASGFTFSSYGMHWVRQAPGKGLEWVAVILYDGSNKYYADSVKGRFTISRDNSKNALYLQMNSLRAEDTAVYYCAKVTNPGDAFDIWGQGTMVTVSSGTGGSGGTGSGTGGSTDIQMTQSPSSLSASVGDRVTITCRASQGISSALAWYQQKPGKAPKLLIYDASSLESGVPSRFSGSGSGTDFTLTISSLQPEDFATYYCQQFNSYPLTFGGGTKVEIKRAAA

Tests used:
[1] = target: T1, glycoprotein of rabies virus strain …; assay: cell-based or functional assay
[2] = target: T3, purified rabies virus glycoprotein (rabies virus ERA strain) (rabies virus strain ERA, UniProt P03524 20-524); assay: phage ELISA on coated purified G protein (ERA), anti-M13-HRP
[3] = target: T2, rabies virus glycoprotein (G protein) …; assay: cell-based or functional assay
[4] = target: T3, purified rabies virus glycoprotein …; assay: SPR (BIAcore3000), ERA glycoprotein amine-coupled to CM5 chip, antibody injected

Row | Binder | Potency (IU/ml) [1] [IU/ml] | OD 492 nm [2] [OD 492 nm] | Neutralizing potency (modified RFFIT) [3] [IU/mg] | Kd [4] [nM]
1 | B1 | 0.1 | 0.232 | – | –
2 | B2 | – | – | 3000 | –
3 | B3 | – | – | – | 4.5
4 | B4 | 6 | 0.571 | – | –
5 | B5 | 3 | 0.484 | – | –
6 | B6 | – | – | 3800 | –
7 | B7 | 6 | 0.775 | – | –
8 | B8 | – | – | 605 | –
9 | B9 | 3 | 0.735 | – | –
10 | B10 | 1 | 0.865 | – | –
